# Measurements as given in paper PMC3299815 (Biochemistry, 2012).
# Molecular target: the molecule itself
# Test: SEC
protein,measurement,value
Rv0203-notag (natural protein) AMAASDPCAASEVARTVGSVAKSMGDYLDSHPETNQVMTAVLQQQVGPGSVASLKAHFEANPKVASDLHALSQPLTDLSTRCSLPISGLQAIGLMQAVQGARR,stoichiometry N,2
